Source: paper PMC7062188, “The crystal structure of human forkhead box N1 in complex with DNA reveals the structural basis for forkhead box family specificity”

Tests used:
FOXN1 1-614 [1] = target: T1, FOXN1 1-614 (human, UniProt O15353 1-614); assay: fluorescence polarization; EMSA: 50 mM Tris-HCl pH 7.5, 25 mM NaCl, 0.5 mM EDTA, 0.1% Tween 20, 2 mM DTT, 5% glycerol, 30 min room temperature; FP: 10 mM HEPES pH 7.5, 50 mM NaCl, 1 mM TCEP, 10 nM probe; conditions: protein: recombinant; tags: His tag (pNIC28-Bsa4), cleaved with TEV; label: 3' FITC on strand 1; blunt
T1 sequence: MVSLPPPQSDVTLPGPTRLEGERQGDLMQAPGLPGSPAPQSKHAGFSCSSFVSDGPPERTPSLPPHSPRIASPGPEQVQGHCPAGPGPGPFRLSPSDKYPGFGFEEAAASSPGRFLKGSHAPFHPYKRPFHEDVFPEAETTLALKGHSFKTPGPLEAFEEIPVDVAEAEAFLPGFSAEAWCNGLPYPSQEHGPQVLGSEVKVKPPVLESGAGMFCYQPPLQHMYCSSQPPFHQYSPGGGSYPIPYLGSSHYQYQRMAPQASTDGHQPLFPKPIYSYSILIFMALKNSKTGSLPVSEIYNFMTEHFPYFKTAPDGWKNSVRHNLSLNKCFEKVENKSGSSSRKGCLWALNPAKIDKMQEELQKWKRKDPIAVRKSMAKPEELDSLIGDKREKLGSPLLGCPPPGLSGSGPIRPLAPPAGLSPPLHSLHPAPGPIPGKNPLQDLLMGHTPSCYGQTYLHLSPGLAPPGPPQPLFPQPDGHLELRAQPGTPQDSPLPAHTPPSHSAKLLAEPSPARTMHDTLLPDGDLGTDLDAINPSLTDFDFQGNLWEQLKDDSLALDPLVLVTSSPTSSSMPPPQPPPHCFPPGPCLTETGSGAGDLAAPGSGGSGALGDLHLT

FOXN1 1-614 [2] = target: T1, FOXN1 1-614; assay: EMSA; apparent Kd; EMSA: 50 mM Tris-HCl pH 7.5, 25 mM NaCl, 0.5 mM EDTA, 0.1% Tween 20, 2 mM DTT, 5% glycerol, 30 min room temperature; FP: 10 mM HEPES pH 7.5, 50 mM NaCl, 1 mM TCEP, 10 nM probe; conditions: protein: recombinant; tags: His tag (pNIC28-Bsa4), cleaved with TEV; label: 32P on forward strand (5', T4 PNK); blunt
FOXN1 forkhead domain [3] = target: T2, FOXN1 forkhead domain (human, UniProt O15353 270-366); assay: X-ray crystallography; 1.6 A structure; crystals at pH 4.5; EMSA: 50 mM Tris-HCl pH 7.5, 25 mM NaCl, 0.5 mM EDTA, 0.1% Tween 20, 2 mM DTT, 5% glycerol, 30 min room temperature; FP: 10 mM HEPES pH 7.5, 50 mM NaCl, 1 mM TCEP, 10 nM probe; conditions: protein: recombinant; tags: His tag (pNIC28-Bsa4), cleaved with TEV; blunt
T2 sequence: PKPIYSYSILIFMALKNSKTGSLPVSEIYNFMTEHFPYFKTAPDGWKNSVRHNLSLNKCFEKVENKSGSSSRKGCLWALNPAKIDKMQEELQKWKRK

FOXN1 forkhead domain [4] = target: T2, FOXN1 forkhead domain; assay: EMSA; no significant binding over the concentration range tested; EMSA: 50 mM Tris-HCl pH 7.5, 25 mM NaCl, 0.5 mM EDTA, 0.1% Tween 20, 2 mM DTT, 5% glycerol, 30 min room temperature; FP: 10 mM HEPES pH 7.5, 50 mM NaCl, 1 mM TCEP, 10 nM probe; conditions: protein: recombinant; tags: His tag (pNIC28-Bsa4), cleaved with TEV; label: 32P on forward strand (5', T4 PNK); blunt
FOXN1 1-614 [5] = target: T1, FOXN1 1-614; assay: EMSA; apparent Kd; multiple shifted species; EMSA: 50 mM Tris-HCl pH 7.5, 25 mM NaCl, 0.5 mM EDTA, 0.1% Tween 20, 2 mM DTT, 5% glycerol, 30 min room temperature; FP: 10 mM HEPES pH 7.5, 50 mM NaCl, 1 mM TCEP, 10 nM probe; conditions: protein: recombinant; tags: His tag (pNIC28-Bsa4), cleaved with TEV; label: 32P on forward strand (5', T4 PNK); blunt

B1: tandem FKH FP probe (dsDNA)
DNA 1: GCAGCATAAACAACAGAGCGATAAACCAGGG
DNA 2: CCCTGGTTTATCGCTCTGTTGTTTATGCTGC
Kd (FOXN1 1-614 [1]): 85 ± 11 nM

B2: tandem FKH EMSA probe (dsDNA)
DNA 1: AGCATAAACAACAGAGCGATAAACCAGG
DNA 2: CCTGGTTTATCGCTCTGTTGTTTATGCT
Kd (FOXN1 1-614 [2]): 205 ± 21 nM

B3: Psmb11 FHL 13-mer (dsDNA)
DNA 1: TGAAGACGCCACC
DNA 2: GGTGGCGTCTTCA
binding result (FOXN1 forkhead domain [3]): binds

B4: PSMA7 tandem FHL EMSA probe (dsDNA)
DNA 1: GCAGCAGACGCAACAGAGCGAGACGCCAGGG
DNA 2: CCCTGGCGTCTCGCTCTGTTGCGTCTGCTGC
binding result (FOXN1 forkhead domain [4]): no binding | Kd (FOXN1 1-614 [5]): 82 ± 8 nM

B5: tandem FHL FP probe (dsDNA)
DNA 1: B4 DNA 1
DNA 2: B4 DNA 2
Kd (FOXN1 1-614 [1]): 38 ± 3.3 nM
